Results taken from paper PMC6391921.

Assays:
Experiment in all cases: BLI
[1] = target: H3ssF_C, H3 stabilized HA stem ferritin nanoparticle, design C (influenza A virus A/Finland/486/2004 (H3N2) | not stated) (UniProt Q9ZLI1)
[2] = target: H3ssF_H, H3 stabilized HA stem ferritin nanoparticle, design H (influenza A virus A/Finland/486/2004 (H3N2) | not stated) (UniProt Q9ZLI1)
[3] = target: full-length H3 HA trimer (influenza A virus (H3))

Substance: CT149 Fab
- Kd [1]: 21.3 nM
- koff [1]: 0.017 s⁻¹
- kon [1]: 810000 M⁻¹ s⁻¹
- Kd [2]: 22.2 nM
- koff [2]: 0.018 s⁻¹
- kon [2]: 820000 M⁻¹ s⁻¹
- Kd [3]: 42.2 nM
- koff [3]: 0.0032 s⁻¹
- kon [3]: 75000 M⁻¹ s⁻¹
